Laboratory results: PMC9482650, “Quantitative fragmentomics allow affinity mapping of interactomes” (Nature Communications, 2022)

Key:
Assay in all cases: holdup assay
Design in all cases: key: below the threshold = too weak to quantify, mostly under pKd 3.1 to 4
AHNAK2, Q8IVF2 = molecular target: AHNAK2, Q8IVF2
CARD14, Q9BXL6 = molecular target: CARD14, Q9BXL6
DLG5_2, Q8TDM6 = molecular target: DLG5_2, Q8TDM6
DVL1, O14640 = molecular target: T1, DVL1, O14640
T1 sequence (O14640 246-333, limits assumed, looked up): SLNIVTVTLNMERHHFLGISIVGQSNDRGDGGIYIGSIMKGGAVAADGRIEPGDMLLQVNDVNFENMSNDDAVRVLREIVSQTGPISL

GRIP2_2, Q9C0E4 = molecular target: GRIP2_2, Q9C0E4
Inadl_7, Q8NI35 = molecular target: Inadl_7, Q8NI35
MAGI1_5, Q96QZ7 = molecular target: MAGI1_5, Q96QZ7
MAGI2_1, Q86UL8 = molecular target: T2, MAGI2_1, Q86UL8
T2 sequence (Q86UL8 12-111, limits assumed, looked up): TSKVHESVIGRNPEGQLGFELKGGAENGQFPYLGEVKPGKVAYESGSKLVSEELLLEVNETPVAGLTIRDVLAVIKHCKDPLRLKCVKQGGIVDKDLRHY

MAGI3_4, Q5TCQ9 = molecular target: MAGI3_4, Q5TCQ9
MAGI3_6, Q5TCQ9 = molecular target: MAGI3_6, Q5TCQ9
MAGIX, Q9H6Y5 = molecular target: MAGIX, Q9H6Y5
MAST3, O60307 = molecular target: MAST3, O60307
MPDZ_3, O75970 = molecular target: T3, MPDZ_3, O75970
T3 sequence (O75970 372-473, limits assumed, looked up): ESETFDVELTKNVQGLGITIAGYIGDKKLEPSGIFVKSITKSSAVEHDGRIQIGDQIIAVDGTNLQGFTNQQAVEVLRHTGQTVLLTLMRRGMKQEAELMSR

MPP5, Q8N3R9 = molecular target: T4, MPP5, Q8N3R9
T4 sequence (Q8N3R9 251-346, limits assumed, looked up): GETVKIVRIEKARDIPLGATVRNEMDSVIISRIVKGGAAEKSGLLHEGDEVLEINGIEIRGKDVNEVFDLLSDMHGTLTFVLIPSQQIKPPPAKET

NHERF4_3, Q86UT5 = molecular target: NHERF4_3, Q86UT5
PARD3B_3, Q8TEW8 = molecular target: PARD3B_3, Q8TEW8
PDZD2_1, O15018 = molecular target: T5, PDZD2_1, O15018
T5 sequence (O15018 80-192, limits assumed, looked up): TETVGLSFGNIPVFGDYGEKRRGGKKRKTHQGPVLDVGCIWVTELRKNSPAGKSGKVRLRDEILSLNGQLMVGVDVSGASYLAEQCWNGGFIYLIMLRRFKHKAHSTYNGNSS

PDZD7_1, Q9H5P4 = molecular target: T6, PDZD7_1, Q9H5P4
T6 sequence (Q9H5P4 81-178, limits assumed, looked up): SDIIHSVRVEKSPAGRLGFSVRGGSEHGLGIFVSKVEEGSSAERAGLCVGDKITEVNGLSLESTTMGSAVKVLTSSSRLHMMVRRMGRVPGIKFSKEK

PDZD7_2, Q9H5P4 = molecular target: T7, PDZD7_2, Q9H5P4
T7 sequence (Q9H5P4 205-303, limits assumed, looked up): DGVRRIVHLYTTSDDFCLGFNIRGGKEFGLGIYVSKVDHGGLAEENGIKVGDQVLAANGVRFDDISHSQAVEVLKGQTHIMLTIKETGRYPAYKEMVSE

PTPN13_5, Q12923 = molecular target: T8, PTPN13_5, Q12923
T8 sequence (Q12923 1877-1975, limits assumed, looked up): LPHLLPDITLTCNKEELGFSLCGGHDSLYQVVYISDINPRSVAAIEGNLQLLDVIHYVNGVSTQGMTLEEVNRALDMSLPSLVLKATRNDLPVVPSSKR

RGS12, O14924 = molecular target: T9, RGS12, O14924
T9 sequence (O14924 17-108, limits assumed, looked up): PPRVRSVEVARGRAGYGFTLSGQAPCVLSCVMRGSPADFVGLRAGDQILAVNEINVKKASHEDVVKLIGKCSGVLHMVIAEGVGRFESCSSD

SDCBP_1, O00560 = molecular target: SDCBP_1, O00560
SHROOM2, Q13796 = molecular target: T10, SHROOM2, Q13796
T10 sequence (Q13796 21-118, limits assumed, looked up): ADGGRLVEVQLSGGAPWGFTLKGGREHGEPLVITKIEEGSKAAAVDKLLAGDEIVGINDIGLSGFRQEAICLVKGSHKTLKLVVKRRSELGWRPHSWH

SNTB2, Q13425 = molecular target: T11, SNTB2, Q13425
T11 sequence (Q13425 110-208, limits assumed, looked up): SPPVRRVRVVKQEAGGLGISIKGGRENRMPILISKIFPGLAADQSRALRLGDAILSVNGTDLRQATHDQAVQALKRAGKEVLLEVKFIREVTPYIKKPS

TJP3_2, O95049 = molecular target: T12, TJP3_2, O95049
T12 sequence (O95049 190-282, limits assumed, looked up): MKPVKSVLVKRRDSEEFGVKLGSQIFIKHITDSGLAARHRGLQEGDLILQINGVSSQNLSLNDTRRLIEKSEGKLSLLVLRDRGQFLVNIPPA

[1] = plain residues with an end cap or a label only (N-terminal biotin on a linker: ttds)
[2] = plain residues with an end cap or a label only (N-terminal biotin on a linker: none)

Sequence of MAGI3_4, Q5TCQ9 (Q5TCQ9 716-815): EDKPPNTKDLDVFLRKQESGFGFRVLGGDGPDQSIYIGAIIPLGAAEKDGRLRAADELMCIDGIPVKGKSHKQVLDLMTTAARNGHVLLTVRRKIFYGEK
Sequence of PARD3B_3, Q8TEW8 (Q8TEW8 490-594): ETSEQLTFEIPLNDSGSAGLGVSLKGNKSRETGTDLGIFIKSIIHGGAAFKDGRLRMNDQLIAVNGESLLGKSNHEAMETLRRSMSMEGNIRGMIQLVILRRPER
Sequence of MAGI1_5, Q96QZ7 (Q96QZ7 986-1098): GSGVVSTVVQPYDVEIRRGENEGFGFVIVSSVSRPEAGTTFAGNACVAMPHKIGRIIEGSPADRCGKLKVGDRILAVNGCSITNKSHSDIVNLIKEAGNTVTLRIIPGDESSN
Sequence of MAST3, O60307 (O60307 945-1048): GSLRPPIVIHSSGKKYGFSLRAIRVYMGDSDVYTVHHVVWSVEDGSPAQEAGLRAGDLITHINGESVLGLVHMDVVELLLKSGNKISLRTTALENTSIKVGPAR
Sequence of AHNAK2, Q8IVF2 (Q8IVF2 108-193): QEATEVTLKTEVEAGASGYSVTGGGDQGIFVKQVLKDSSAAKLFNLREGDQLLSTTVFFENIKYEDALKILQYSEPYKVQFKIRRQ
Sequence of NHERF4_3, Q86UT5 (Q86UT5 325-412): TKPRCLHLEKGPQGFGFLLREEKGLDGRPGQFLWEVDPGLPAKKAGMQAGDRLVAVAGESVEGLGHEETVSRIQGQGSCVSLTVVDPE
Sequence of GRIP2_2, Q9C0E4 (Q9C0E4 137-245): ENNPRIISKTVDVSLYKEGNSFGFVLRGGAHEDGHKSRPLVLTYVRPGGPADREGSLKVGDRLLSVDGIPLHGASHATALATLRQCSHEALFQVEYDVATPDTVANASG
Sequence of Inadl_7, Q8NI35 (Q8NI35 1219-1332): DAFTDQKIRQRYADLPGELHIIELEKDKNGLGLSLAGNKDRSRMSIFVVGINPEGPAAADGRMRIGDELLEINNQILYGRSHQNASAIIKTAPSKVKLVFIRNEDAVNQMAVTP
Sequence of MAGIX, Q9H6Y5 (Q9H6Y5 118-211): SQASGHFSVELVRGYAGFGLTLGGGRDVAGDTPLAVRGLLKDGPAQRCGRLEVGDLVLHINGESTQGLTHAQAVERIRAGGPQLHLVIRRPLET
Sequence of MAGI3_6, Q5TCQ9 (Q5TCQ9 1014-1103): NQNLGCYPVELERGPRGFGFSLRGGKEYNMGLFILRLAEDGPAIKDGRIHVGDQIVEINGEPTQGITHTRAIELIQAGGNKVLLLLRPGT
Sequence of DLG5_2, Q8TDM6 (Q8TDM6 714-800): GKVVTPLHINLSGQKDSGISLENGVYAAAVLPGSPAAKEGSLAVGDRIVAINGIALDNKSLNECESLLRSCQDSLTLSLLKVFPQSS
Sequence of SDCBP_1, O00560 (O00560 111-198): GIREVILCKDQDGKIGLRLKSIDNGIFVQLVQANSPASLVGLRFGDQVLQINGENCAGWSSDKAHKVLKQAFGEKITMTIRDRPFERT
Sequence of CARD14, Q9BXL6 (Q9BXL6 558-663): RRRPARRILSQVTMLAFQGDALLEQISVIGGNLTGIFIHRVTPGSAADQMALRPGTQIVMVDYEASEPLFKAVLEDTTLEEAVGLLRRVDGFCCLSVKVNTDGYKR

Which pKd (AHNAK2, Q8IVF2; [1]) does the source give for RLPKIKETTV [FRMPD4, Q14CM0] here?
The pKd was “below the threshold”.

What about the pKd (CARD14, Q9BXL6; [1]) of the same binder?
The pKd was “below the threshold”.

And the pKd (DLG5_2, Q8TDM6; [1])?
Its pKd is 4.7.

And the pKd (DVL1, O14640; [1])?
The pKd was 4.63.

What about the pKd (GRIP2_2, Q9C0E4; [1]) of the same binder?
The pKd was “below the threshold”.

What about the pKd (Inadl_7, Q8NI35; [1]) of the same binder?
The pKd was “below the threshold”.

And the pKd (MAGI1_5, Q96QZ7; [1])?
The pKd was 4.5.

What about the pKd (MAGI2_1, Q86UL8; [1]) of the same binder?
Its pKd is “below the threshold”.

What about the pKd (MAGI3_4, Q5TCQ9; [1]) of the same binder?
The pKd was “below the threshold”.

And the pKd (MAGI3_6, Q5TCQ9; [1])?
The pKd was “below the threshold”.

What about the pKd (MAGIX, Q9H6Y5; [1]) of the same binder?
The pKd was “below the threshold”.

What about the pKd (MAST3, O60307; [1]) of the same binder?
Its pKd is “below the threshold”.

And the pKd (MPDZ_3, O75970; [1])?
Its pKd is “below the threshold”.

And the pKd (MPP5, Q8N3R9; [1])?
The pKd was “below the threshold”.

What about the pKd (NHERF4_3, Q86UT5; [1]) of the same binder?
Its pKd is “below the threshold”.

And the pKd (PARD3B_3, Q8TEW8; [1])?
The pKd was “below the threshold”.

What about the pKd (PDZD2_1, O15018; [1]) of the same binder?
The pKd was “below the threshold”.

And the pKd (PDZD7_1, Q9H5P4; [1])?
The pKd was “below the threshold”.

And the pKd (PDZD7_2, Q9H5P4; [1])?
Its pKd is “below the threshold”.

What about the pKd (PTPN13_5, Q12923; [1]) of the same binder?
Its pKd is “below the threshold”.

What about the pKd (RGS12, O14924; [1]) of the same binder?
Its pKd is 4.61.

What about the pKd (SDCBP_1, O00560; [1]) of the same binder?
The pKd was “below the threshold”.

What about the pKd (SHROOM2, Q13796; [1]) of the same binder?
Its pKd is “below the threshold”.

And the pKd (SNTB2, Q13425; [1])?
Its pKd is 5.36.

What about the pKd (TJP3_2, O95049; [1]) of the same binder?
Its pKd is “below the threshold”.

What does the source list for RPLPRKVSQL [DOCK4, Q8N1I0]?
pKd (AHNAK2, Q8IVF2; [1]): below the threshold; pKd (CARD14, Q9BXL6; [1]): below the threshold; pKd (DLG5_2, Q8TDM6; [1]): below the threshold; pKd (DVL1, O14640; [1]): below the threshold; pKd (GRIP2_2, Q9C0E4; [1]): 4.25; pKd (Inadl_7, Q8NI35; [1]): 4.45; pKd (MAGI1_5, Q96QZ7; [1]): below the threshold; pKd (MAGI2_1, Q86UL8; [1]): below the threshold; pKd (MAGI3_4, Q5TCQ9; [1]): 4.12; pKd (MAGI3_6, Q5TCQ9; [1]): below the threshold; pKd (MAGIX, Q9H6Y5; [1]): below the threshold; pKd (MAST3, O60307; [1]): below the threshold; pKd (MPDZ_3, O75970; [1]): below the threshold; pKd (MPP5, Q8N3R9; [1]): below the threshold; pKd (NHERF4_3, Q86UT5; [1]): 4.21; pKd (PARD3B_3, Q8TEW8; [1]): below the threshold; pKd (PDZD2_1, O15018; [1]): below the threshold; pKd (PDZD7_1, Q9H5P4; [1]): 4.33; pKd (PDZD7_2, Q9H5P4; [1]): below the threshold; pKd (PTPN13_5, Q12923; [1]): below the threshold; pKd (RGS12, O14924; [1]): below the threshold; pKd (SDCBP_1, O00560; [1]): below the threshold; pKd (SHROOM2, Q13796; [1]): below the threshold; pKd (SNTB2, Q13425; [1]): below the threshold; pKd (TJP3_2, O95049; [1]): below the threshold

For NLNSSRVPDLLV [SARS-CoV2-E, P0DTC4], which pKd (AHNAK2, Q8IVF2; [2]) is on record?
The pKd was “below the threshold”.

And the pKd (CARD14, Q9BXL6; [2])?
Its pKd is “below the threshold”.

What about the pKd (DLG5_2, Q8TDM6; [2]) of the same binder?
The pKd was “below the threshold”.

And the pKd (DVL1, O14640; [2])?
The pKd was “below the threshold”.

What about the pKd (GRIP2_2, Q9C0E4; [2]) of the same binder?
The pKd was “below the threshold”.

And the pKd (Inadl_7, Q8NI35; [2])?
Its pKd is “below the threshold”.

What about the pKd (MAGI1_5, Q96QZ7; [2]) of the same binder?
The pKd was “below the threshold”.

And the pKd (MAGI2_1, Q86UL8; [2])?
The pKd was “below the threshold”.

What about the pKd (MAGI3_4, Q5TCQ9; [2]) of the same binder?
The pKd was “below the threshold”.

What about the pKd (MAGI3_6, Q5TCQ9; [2]) of the same binder?
The pKd was “below the threshold”.

And the pKd (MAGIX, Q9H6Y5; [2])?
Its pKd is “below the threshold”.

What about the pKd (MAST3, O60307; [2]) of the same binder?
The pKd was “below the threshold”.

What about the pKd (MPDZ_3, O75970; [2]) of the same binder?
Its pKd is “below the threshold”.

And the pKd (MPP5, Q8N3R9; [2])?
Its pKd is 4.01.

What about the pKd (NHERF4_3, Q86UT5; [2]) of the same binder?
The pKd was “below the threshold”.

What about the pKd (PARD3B_3, Q8TEW8; [2]) of the same binder?
Its pKd is “below the threshold”.

And the pKd (PDZD2_1, O15018; [2])?
The pKd was “below the threshold”.

And the pKd (PDZD7_1, Q9H5P4; [2])?
The pKd was “below the threshold”.

And the pKd (PDZD7_2, Q9H5P4; [2])?
The pKd was “below the threshold”.

What about the pKd (PTPN13_5, Q12923; [2]) of the same binder?
Its pKd is “below the threshold”.

And the pKd (RGS12, O14924; [2])?
Its pKd is “below the threshold”.

What about the pKd (SDCBP_1, O00560; [2]) of the same binder?
Its pKd is “below the threshold”.

What about the pKd (SHROOM2, Q13796; [2]) of the same binder?
Its pKd is “below the threshold”.

What about the pKd (SNTB2, Q13425; [2]) of the same binder?
The pKd was “below the threshold”.

And the pKd (TJP3_2, O95049; [2])?
Its pKd is “below the threshold”.
